Results on 1 molecule are retold here after paper doi:10.1101/2023.07.13.548819, “Trafficking Machinery is Rapidly Primed to Facilitate Polarised IL-6 Secretion in Dendritic Cells” (bioRxiv, 2023).

This assay deals with T1, cytosolic fragment of human STX4 (residues 1-271 with 272C) (human, UniProt Q12846 1-271).
T1 construct: human STX4 lacking the transmembrane domain, residues 1-271; synthetic gene in NdeI/XhoI of pET28a(+); cysteine at position 272 ('residues 1-271 with 272C')
T1 chain: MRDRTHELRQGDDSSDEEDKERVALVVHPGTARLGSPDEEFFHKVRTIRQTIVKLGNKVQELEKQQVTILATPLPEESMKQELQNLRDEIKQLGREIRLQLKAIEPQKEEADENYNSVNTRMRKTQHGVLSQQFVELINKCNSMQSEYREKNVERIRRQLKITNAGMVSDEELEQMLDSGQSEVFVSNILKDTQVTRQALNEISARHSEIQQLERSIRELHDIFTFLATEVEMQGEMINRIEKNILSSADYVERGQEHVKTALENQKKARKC
Kind of assay: SEC; 100 mM (so in the source) of each protein mixed, overnight at RT; ENrich SEC 70 column in 20 mM HEPES pH 7.4, 100 mM NaCl, 0.2 mM TCEP, 1% CHAPS. Particulars: both partners purified. In general terms: Size exclusion chromatography separates by hydrodynamic size, large species first.

B1: VAMP2(49-96) (domain or fragment, UniProt P63045 49-96, looked up)
chain: NVDKVLERDQKLSELDDRADALQAGASQFETSAAKLKRKYWWKNLKMM
notes: VAMP2, C-terminal half of the SNARE motif, residues 49-96; construct described previously (Pobbati, Stein and Fasshauer, 2006); that fragment is, as far as I recall, from rat; also called C-terminal half of the SNARE motif of VAMP2 (residues 49-96)
For the molecule B1, the binding result is “binds”.
